We go through one molecule from publication PMC3293909.

Test [1] addresses T1, ephrin B1 (mouse (endogenous in primary osteoclasts)).
T1 sequence (P52795 whole entry, looked up): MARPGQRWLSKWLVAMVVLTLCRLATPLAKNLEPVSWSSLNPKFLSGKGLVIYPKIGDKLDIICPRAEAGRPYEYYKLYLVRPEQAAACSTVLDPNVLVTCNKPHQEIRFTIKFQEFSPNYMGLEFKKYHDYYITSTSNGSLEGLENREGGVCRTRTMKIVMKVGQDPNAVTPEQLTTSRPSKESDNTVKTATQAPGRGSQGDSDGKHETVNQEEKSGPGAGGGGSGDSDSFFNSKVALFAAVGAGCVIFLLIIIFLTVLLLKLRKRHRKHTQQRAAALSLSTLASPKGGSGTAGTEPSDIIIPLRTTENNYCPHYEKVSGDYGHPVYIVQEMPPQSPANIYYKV

Test [2] shares this target. The source holds these as a separate data set.

B1: clustered soluble recombinant EphB2-Fc (Fc fusion)
chain: VEETLMDSTTATAELGWMVHPPSGWEEVSGYDENMNTIRTYQVCNVFESSQNNWLRTKFIRRRGAHRIHVEMKFSVRDCSSIPSVPGSCKETFNLYYYEADFDLATKTFPNWMENPWVKVDTIAADESFSQVDLGGRVMKINTEVRSFGPVSRNGFYLAFQDYGGCMSLIAVRVFYRKCPRIIQNGAIFQETLSGAESTSLVAARGSCIANAEEVDVPIKLYCNGDGEWLVPIGRCMCKAGFEAVENGTVCRGCPSGTFKANQGDEACTHCPINSRTTSEGATNCVCRNGYYRADLDPLDMPCTTIPSAPQAVISSVNETSLMLEWTPPRDSGGREDLVYNIICKSCGSGRGACTRCGDNVQYAPRQLGLTEPRIYISDLLAHTQYTFEIQAVNGVTDQSPFSPQFASVNITTNQAAPSAVSIMHQVSRTVDSITLSWSQPDQPNGVILDYELQYYEKELSEYNATAIKSPTNTVTVQGLKAGAIYVFQVRARTVAGYGRYSGKMYFQTMTEAEYQTSIKEKLPL
In test [1], B1 displayed an inhibition of the area of bone resorption pits formed by WT osteoclast precursors on bone slices by EphB2-Fc against control Fc; no significant effect on ephrin B1 deficient cells of 54% and a suppression of multinucleated cell (MNC) formation from WT splenocyte precursors by EphB2-Fc (2 µg/ml) against control Fc; little effect on ephrin B1 deficient cells of 49.8%. In test [2], the inhibition of NFATc1 mRNA (real-time RT-PCR) in WT osteoclasts treated with EphB2-Fc against control Fc; not in ephrin B1 deficient cells stood at 67%, the inhibition of cathepsin K mRNA (real-time RT-PCR) in WT osteoclasts treated with EphB2-Fc against control Fc; not in ephrin B1 deficient cells stood at 60% and the reduction of TRAP mRNA (real-time RT-PCR) in differentiated WT osteoclasts treated with soluble EphB2-Fc for 4 days against control Fc was found to be 62%.
